Test results published in article doi:10.1101/718155 (2019).

B1: S100B (natural protein)
chain: MSELEKAMVALIDVFHQYSGREGDKHKLKKSELKELINNELSHFLEEIKEQEVVDKVMETLDNDGDGECDFQEFMAFVAMVTTACHEFFEHE
B2: NCX1 (254-265) peptide (peptide)
peptide: RRLLFYKYVYKR
B3: FOP (1-48) peptide (peptide)
peptide: MAATAAAVVAEEDTELRDLLVQTLENSGVLNRIKAELRAAVFLALEEQ
B4: TRPM4 (129-147) peptide (peptide)
peptide: VLQTWLQDLLRRGLVRAAQ
B5: NMIIA (1894-1937) peptide (peptide)
peptide: RKLQRELEDATETADAMNREVSSLKNKLRRGDLPFVVPRRMARK
B6: SIP (188-202) peptide (peptide)
peptide: SEGLMNVLKKIYEDG
B7: MDM4 (25-43) peptide (peptide)
peptide: NQVRPKLPLLKILHAAGAQ
B8: CapZ (265-276) peptide (peptide)
chain: TRTKIDWNKILS
B9: RSK1 (696-735) peptide (peptide)
peptide: GAMAATYSALNSSKPTPQLKPIESSILAQRRVRKLPSTTL

Key:
MK2 = test: FP; competitive
RSK1-CTKD = test: FP; competitive
FOR20 = test: FP; competitive
S100B [1] = molecular target: B1; test: FP; direct
S100A1 [2] = test: ITC; 310 K
S100A9 = test: FP; direct
S100A3 [3] = test: FP; direct
S100P [4] = test: FP; direct
S100A8 [5] = test: FP; direct
S100A12 = test: FP; direct
S100A15 = test: FP; direct
S100A6 [6] = test: FP; direct
S100A1 [7] = test: FP; direct
S100A5 [8] = test: FP; direct
S100A14 = test: FP; direct
S100G = test: FP; direct
S100A13 = test: FP; direct
S100A2 [9] = test: FP; direct
S100A4 [10] = test: FP; direct
S100Z = test: FP; direct
S100A11 [11] = test: FP; direct
S100A7 = test: FP; direct
S100A10 [12] = test: FP; direct
S100B [13] = molecular target: B1; test: FP; competitive
S100A1 [14] = test: FP; competitive
S100A5 [15] = test: FP; competitive
S100A6 [16] = test: ITC; 310 K
S100A3 [17] = test: FP; competitive
S100P [18] = test: FP; competitive
S100A6 [19] = test: FP; competitive
S100A2 [20] = test: FP; competitive
S100A4 [21] = test: FP; competitive
S100A5 [22] = test: ITC; 310 K
S100A8 [23] = test: FP; competitive
S100A11 [24] = test: FP; competitive
S100A10 [25] = test: FP; competitive
S100A1 [26] = test: ITC; 298 K
S100B [27] = molecular target: B1; test: ITC; 310 K
S100B [28] = molecular target: B1; test: ITC; 310 K; second site
S100B [29] = molecular target: B1; test: ITC; 298 K

| Kd (S100B [1]) [µM] | Kd (S100A3 [3]) [µM] | Kd (S100P [4]) [µM] | Kd (S100A6 [6]) [µM] | Kd (S100A1 [7]) [µM] | Kd (S100A5 [8]) [µM] | Kd (S100A14) [µM] | Kd (S100A2 [9]) [µM] | Kd (S100A4 [10]) [µM] | Kd (S100A11 [11]) [µM] | Kd (S100B [13]) [µM] | Kd (S100A1 [14]) [µM] | Kd (S100A5 [15]) [µM] | Kd (S100P [18]) [µM] | Kd (S100A6 [19]) [µM] | Kd (S100A2 [20]) [µM] | Kd (S100A4 [21]) [µM] | Binder | other results |
| --- | --- | --- | --- | --- | --- | --- | --- | --- | --- | --- | --- | --- | --- | --- | --- | --- | --- | --- |
|  |  |  |  |  |  |  |  |  |  |  |  |  |  |  |  |  | B1 | Kd (MK2): 3.2 µM; Kd (RSK1-CTKD): 1.2 µM; Kd (FOR20): 0.25 µM |
| 7.7 | 25 | 4 | 27 | 2.6 | 4.6 | 71 | 5.5 | 15 | 52 | > 200 | 2.6 | 5.2 |  |  |  |  | B2 | Kd (S100A1 [2]): 6.4 µM; Kd (S100A9): 20 µM; Kd (S100A8 [5]): 56 µM; Kd (S100A12): 170 µM; Kd (S100A15): 28 µM; Kd (S100G): 24 µM; Kd (S100A13): 87 µM; Kd (S100Z): 11 µM; Kd (S100A7): 30 µM; Kd (S100A10 [12]): 53 µM |
|  |  |  |  |  |  |  |  |  |  | 1.2 | 0.35 | 0.56 | 0.066 | 0.0056 | 0.081 | 0.048 | B3 | Kd (S100A6 [16]): 0.088 µM; Kd (S100A3 [17]): 0.27 µM |
| 16 | 0.91 | 0.93 | 1.4 | 0.38 | 0.6 | 12 | 1 | 5.9 | 2.4 | > 200 |  | 2.3 |  | 8.4 | 1.1 | 35 | B4 | Kd (S100A5 [22]): 1.4 µM; Kd (S100A9): 21 µM; Kd (S100A8 [5]): 3.8 µM; Kd (S100A10 [12]): 17 µM; Kd (S100A3 [17]): 3.4 µM; Kd (S100A8 [23]): 13 µM; Kd (S100A11 [24]): 106 µM; Kd (S100A10 [25]): 125 µM |
| 4.7 | 5.5 | 0.99 | 0.58 | 0.033 | 5.8 | 98 | 0.057 | 0.026 | 49 | 2.9 | 0.004 | 2.9 | 0.14 | 0.21 | 0.013 | 0.0088 | B5 | Kd (S100A1 [26]): 0.009 µM; Kd (S100A15): 17 µM; Kd (S100G): 21 µM; Kd (S100A7): 13.1 µM |
| > 200 |  | 38 | 8.7 |  | 42 |  | 102 | 42 |  |  |  | 40 |  | 20 |  | 11 | B6 | Kd (S100A5 [22]): 21 µM |
| 0.2 |  |  |  | 91 | 61 |  | 49 |  |  | 0.15 | 35 | 65 |  |  | 53 |  | B7 | Kd (S100B [27]): 0.71 µM; Kd (S100B [28]): 0.63 µM |
| 2.3 |  | 11 |  | 8.9 | 4.7 |  |  |  |  | 1.8 | 5.2 | 5.4 | 4.1 |  |  |  | B8 | Kd (S100B [27]): 3.9 µM; Kd (S100B [28]): 0.94 µM |
|  |  |  |  |  |  |  |  |  |  |  |  |  |  |  |  |  | B9 | Kd (S100B [29]): 12 µM |
